{"source": "patent US20170096493A1", "about": "(EISAI R AND D MANAGEMENT, published 2017)", "binders": {"B1": {"name": "HK2L4 (antibody, human IgG2, kappa)", "heavy": "EVQLVESGGGLVQPGGSLRLSCAASGFTFSSYGMSWVRQAPGKGLELVSTINSNGGRTYYPDSVKGRFTISRDNSKNTLYLQMGSLRAEDMAVYYCARDQGFAYWGQGTLVTVSSASTKGPSVFPLAPCSRSTSESTAALGCLVKDYFPEPVTVSWNSGALTSGVHTFPAVLQSSGLYSLSSVVTVPSSNFGTQTYTCNVDHKPSNTKVDKTVERKCCVECPPCPAPPAAAPSVFLFPPKPKDTLMISRTPEVTCVVVDVSHEDPEVQFNWYVDGVEVHNAKTKPREEQFNSTFRVVSVLTVVHQDWLNGKEYKCKVSNKGLPAPIEKTISKTKGQPREPQVYTLPPSREEMTKNQVSLTCLVKGFYPSDIAVEWESNGQPENNYKTTPPMLDSDGSFFLYSKLTVDKSRWQQGNVFSCSVMHEALHNHYTQKSLSLSPGK", "light": "not shown", "notes": "Humanized IgG2 (V234A, G237A)/κ; also called No. 14"}, "B2": {"name": "HK2L3 (antibody, human IgG2, kappa)", "heavy": "EVQLVESGGGLVQPGGSLRLSCAASGFTFSSYGMSWVRQAPGKGLELVSTINSNGGRTYYPDSVKGRFTISRDNSKNTLYLQMGSLRAEDMAVYYCARDQGFAYWGQGTLVTVSSASTKGPSVFPLAPCSRSTSESTAALGCLVKDYFPEPVTVSWNSGALTSGVHTFPAVLQSSGLYSLSSVVTVPSSNFGTQTYTCNVDHKPSNTKVDKTVERKCCVECPPCPAPPAAAPSVFLFPPKPKDTLMISRTPEVTCVVVDVSHEDPEVQFNWYVDGVEVHNAKTKPREEQFNSTFRVVSVLTVVHQDWLNGKEYKCKVSNKGLPAPIEKTISKTKGQPREPQVYTLPPSREEMTKNQVSLTCLVKGFYPSDIAVEWESNGQPENNYKTTPPMLDSDGSFFLYSKLTVDKSRWQQGNVFSCSVMHEALHNHYTQKSLSLSPGK", "light": "not shown", "notes": "Humanized IgG2 (V234A, G237A)/κ; also called No. 13"}, "B3": {"name": "HK3L4 (antibody, human IgG2, kappa)", "heavy": "EVQLVESGGGLVQPGGSLRLSCAASGFTFSSYGMSWVRQAPGKGLELVATINSNGGRTYYPDSVKGRFTISRDNSKNTLYLQMGSLKAEDMAVYYCARDQGFAYWGQGTLVTVSSASTKGPSVFPLAPCSRSTSESTAALGCLVKDYFPEPVTVSWNSGALTSGVHTFPAVLQSSGLYSLSSVVTVPSSNFGTQTYTCNVDHKPSNTKVDKTVERKCCVECPPCPAPPAAAPSVFLFPPKPKDTLMISRTPEVTCVVVDVSHEDPEVQFNWYVDGVEVHNAKTKPREEQFNSTFRVVSVLTVVHQDWLNGKEYKCKVSNKGLPAPIEKTISKTKGQPREPQVYTLPPSREEMTKNQVSLTCLVKGFYPSDIAVEWESNGQPENNYKTTPPMLDSDGSFFLYSKLTVDKSRWQQGNVFSCSVMHEALHNHYTQKSLSLSPGK", "light": "not shown", "notes": "Humanized IgG2 (V234A, G237A)/κ; also called No. 19"}, "B4": {"name": "HA2L4 (antibody, human IgG2, kappa)", "heavy": "EVQLVESGGGLVQPGGSLRLSCAASGFTFSSYGMSWVRQAPGKGLELVSTINSNGGRTYYANSVKGRFTISRDNSKNTLYLQMGSLRAEDMAVYYCARDQGFAYWGQGTLVTVSSASTKGPSVFPLAPCSRSTSESTAALGCLVKDYFPEPVTVSWNSGALTSGVHTFPAVLQSSGLYSLSSVVTVPSSNFGTQTYTCNVDHKPSNTKVDKTVERKCCVECPPCPAPPAAAPSVFLFPPKPKDTLMISRTPEVTCVVVDVSHEDPEVQFNWYVDGVEVHNAKTKPREEQFNSTFRVVSVLTVVHQDWLNGKEYKCKVSNKGLPAPIEKTISKTKGQPREPQVYTLPPSREEMTKNQVSLTCLVKGFYPSDIAVEWESNGQPENNYKTTPPMLDSDGSFFLYSKLTVDKSRWQQGNVFSCSVMHEALHNHYTQKSLSLSPGK", "light": "not shown", "notes": "Humanized IgG2 (V234A, G237A)/κ; also called No. 29"}, "B5": {"name": "HA2L5 (antibody, human IgG2, kappa)", "heavy": "EVQLVESGGGLVQPGGSLRLSCAASGFTFSSYGMSWVRQAPGKGLELVSTINSNGGRTYYANSVKGRFTISRDNSKNTLYLQMGSLRAEDMAVYYCARDQGFAYWGQGTLVTVSSASTKGPSVFPLAPCSRSTSESTAALGCLVKDYFPEPVTVSWNSGALTSGVHTFPAVLQSSGLYSLSSVVTVPSSNFGTQTYTCNVDHKPSNTKVDKTVERKCCVECPPCPAPPAAAPSVFLFPPKPKDTLMISRTPEVTCVVVDVSHEDPEVQFNWYVDGVEVHNAKTKPREEQFNSTFRVVSVLTVVHQDWLNGKEYKCKVSNKGLPAPIEKTISKTKGQPREPQVYTLPPSREEMTKNQVSLTCLVKGFYPSDIAVEWESNGQPENNYKTTPPMLDSDGSFFLYSKLTVDKSRWQQGNVFSCSVMHEALHNHYTQKSLSLSPGK", "light": "DIQMTQSPSSLSASVGDRVTITCKASQDVGTAVAWYQQKPGKSPKLLIYWASTRHTGVPSRFSGSGSGTDFTLTISSLQPEDVATYFCQQYSSYPWTFGQGTKVEIKRTVAAPSVFIFPPSDEQLKSGTASVVCLLNNFYPREAKVQWKVDNALQSGNSQESVTEQDSKDSTYSLSSTLTLSKADYEKHKVYACEVTHQGLSSPVTKSFNRGEC", "notes": "Humanized IgG2 (V234A, G237A)/κ; also called No. 30"}, "B6": {"name": "HK3L3 (antibody, human IgG2, kappa)", "heavy": "EVQLVESGGGLVQPGGSLRLSCAASGFTFSSYGMSWVRQAPGKGLELVATINSNGGRTYYPDSVKGRFTISRDNSKNTLYLQMGSLKAEDMAVYYCARDQGFAYWGQGTLVTVSSASTKGPSVFPLAPCSRSTSESTAALGCLVKDYFPEPVTVSWNSGALTSGVHTFPAVLQSSGLYSLSSVVTVPSSNFGTQTYTCNVDHKPSNTKVDKTVERKCCVECPPCPAPPAAAPSVFLFPPKPKDTLMISRTPEVTCVVVDVSHEDPEVQFNWYVDGVEVHNAKTKPREEQFNSTFRVVSVLTVVHQDWLNGKEYKCKVSNKGLPAPIEKTISKTKGQPREPQVYTLPPSREEMTKNQVSLTCLVKGFYPSDIAVEWESNGQPENNYKTTPPMLDSDGSFFLYSKLTVDKSRWQQGNVFSCSVMHEALHNHYTQKSLSLSPGK", "light": "not shown", "notes": "Humanized IgG2 (V234A, G237A)/κ; also called No. 18"}, "B7": {"name": "HA2L3 (antibody, human IgG2, kappa)", "heavy": "EVQLVESGGGLVQPGGSLRLSCAASGFTFSSYGMSWVRQAPGKGLELVSTINSNGGRTYYANSVKGRFTISRDNSKNTLYLQMGSLRAEDMAVYYCARDQGFAYWGQGTLVTVSSASTKGPSVFPLAPCSRSTSESTAALGCLVKDYFPEPVTVSWNSGALTSGVHTFPAVLQSSGLYSLSSVVTVPSSNFGTQTYTCNVDHKPSNTKVDKTVERKCCVECPPCPAPPAAAPSVFLFPPKPKDTLMISRTPEVTCVVVDVSHEDPEVQFNWYVDGVEVHNAKTKPREEQFNSTFRVVSVLTVVHQDWLNGKEYKCKVSNKGLPAPIEKTISKTKGQPREPQVYTLPPSREEMTKNQVSLTCLVKGFYPSDIAVEWESNGQPENNYKTTPPMLDSDGSFFLYSKLTVDKSRWQQGNVFSCSVMHEALHNHYTQKSLSLSPGK", "light": "not shown", "notes": "Humanized IgG2 (V234A, G237A)/κ; also called No. 28"}, "B8": {"name": "HK2L5 (antibody, human IgG2, kappa)", "heavy": "EVQLVESGGGLVQPGGSLRLSCAASGFTFSSYGMSWVRQAPGKGLELVSTINSNGGRTYYPDSVKGRFTISRDNSKNTLYLQMGSLRAEDMAVYYCARDQGFAYWGQGTLVTVSSASTKGPSVFPLAPCSRSTSESTAALGCLVKDYFPEPVTVSWNSGALTSGVHTFPAVLQSSGLYSLSSVVTVPSSNFGTQTYTCNVDHKPSNTKVDKTVERKCCVECPPCPAPPAAAPSVFLFPPKPKDTLMISRTPEVTCVVVDVSHEDPEVQFNWYVDGVEVHNAKTKPREEQFNSTFRVVSVLTVVHQDWLNGKEYKCKVSNKGLPAPIEKTISKTKGQPREPQVYTLPPSREEMTKNQVSLTCLVKGFYPSDIAVEWESNGQPENNYKTTPPMLDSDGSFFLYSKLTVDKSRWQQGNVFSCSVMHEALHNHYTQKSLSLSPGK", "light": "DIQMTQSPSSLSASVGDRVTITCKASQDVGTAVAWYQQKPGKSPKLLIYWASTRHTGVPSRFSGSGSGTDFTLTISSLQPEDVATYFCQQYSSYPWTFGQGTKVEIKRTVAAPSVFIFPPSDEQLKSGTASVVCLLNNFYPREAKVQWKVDNALQSGNSQESVTEQDSKDSTYSLSSTLTLSKADYEKHKVYACEVTHQGLSSPVTKSFNRGEC", "notes": "Humanized IgG2 (V234A, G237A)/κ; also called No. 15"}, "B9": {"name": "HK3L5 (antibody, human IgG2, kappa)", "heavy": "EVQLVESGGGLVQPGGSLRLSCAASGFTFSSYGMSWVRQAPGKGLELVATINSNGGRTYYPDSVKGRFTISRDNSKNTLYLQMGSLKAEDMAVYYCARDQGFAYWGQGTLVTVSSASTKGPSVFPLAPCSRSTSESTAALGCLVKDYFPEPVTVSWNSGALTSGVHTFPAVLQSSGLYSLSSVVTVPSSNFGTQTYTCNVDHKPSNTKVDKTVERKCCVECPPCPAPPAAAPSVFLFPPKPKDTLMISRTPEVTCVVVDVSHEDPEVQFNWYVDGVEVHNAKTKPREEQFNSTFRVVSVLTVVHQDWLNGKEYKCKVSNKGLPAPIEKTISKTKGQPREPQVYTLPPSREEMTKNQVSLTCLVKGFYPSDIAVEWESNGQPENNYKTTPPMLDSDGSFFLYSKLTVDKSRWQQGNVFSCSVMHEALHNHYTQKSLSLSPGK", "light": "DIQMTQSPSSLSASVGDRVTITCKASQDVGTAVAWYQQKPGKSPKLLIYWASTRHTGVPSRFSGSGSGTDFTLTISSLQPEDVATYFCQQYSSYPWTFGQGTKVEIKRTVAAPSVFIFPPSDEQLKSGTASVVCLLNNFYPREAKVQWKVDNALQSGNSQESVTEQDSKDSTYSLSSTLTLSKADYEKHKVYACEVTHQGLSSPVTKSFNRGEC", "notes": "Humanized IgG2 (V234A, G237A)/κ; also called No. 20"}, "B10": {"name": "HK1L3 (antibody, human IgG2, kappa, V domains shown)", "VH": "EVQLVESGGGLVQPGGSLRLSCAASGFTFSSYGMSWVRQAPGKGLEYVSTINSNGGRTYYPDSVKGRFTISRDNSKNTLYLQMGSLRAEDMAVYYCARDQGFAYWGQGTLVTVSS", "VL": "EIVMTQSPATLSVSPGERATLSCKASQDVGTAVAWYQQKPGQAPRLLIYWASTRHTGIPARFSGSGSGTEFTLTISSLQSEDFAVYYCQQYSSYPWTFGQGTKVEIKR", "notes": "Humanized IgG2 (V234A, G237A)/κ; also called No. 8"}}}
{"target": "T1, Human Notch4-NRR domain Fc fusion protein (human, UniProt Q99466 1046-1445, limits assumed)", "T1 construct": "Expressed in a CHO cell line, used from culture supernatant; 1 is named; also called Human Notch4-NRR Fusion Protein; not shown: Fc", "T1 sequence": "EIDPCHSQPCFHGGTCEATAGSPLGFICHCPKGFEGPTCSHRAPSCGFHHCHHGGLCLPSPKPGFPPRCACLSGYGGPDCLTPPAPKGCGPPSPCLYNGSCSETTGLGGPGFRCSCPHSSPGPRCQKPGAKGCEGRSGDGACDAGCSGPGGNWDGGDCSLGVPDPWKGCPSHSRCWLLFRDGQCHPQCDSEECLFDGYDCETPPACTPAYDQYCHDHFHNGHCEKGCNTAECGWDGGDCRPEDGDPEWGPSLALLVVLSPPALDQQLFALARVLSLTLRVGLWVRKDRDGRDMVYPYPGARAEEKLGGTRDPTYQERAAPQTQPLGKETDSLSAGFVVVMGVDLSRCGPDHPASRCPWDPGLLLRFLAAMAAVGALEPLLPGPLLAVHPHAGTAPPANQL", "test": "SPR (Biacore) as for Table 30; Notch4-NRR-Fc captured, antibody injected; averaged, N=6", "protocol": "(§1) Kinetic analysis of further anti-Notch4 inhibitory humanized antibodies was carried out as follows. Human Notch4-NRR domain Fc fusion proteins were expressed with a CHO cell line. The antigen in the culture supernatant was captured by the anti-human Notch4 antibody fixed on a CM5 sensor chip that recognizes different epitopes of human Notch4. The humanized anti-human Notch4 antibody was then injected onto the sensor chip at various concentrations. The interaction and disassociation constants thereof were calculated according to manufacturer's instructions.", "units": {"Kd": "nM", "koff": "s⁻¹", "kon": "M⁻¹ s⁻¹"}}
{"binder": "B1", "Kd": 0.634, "koff": 0.00117, "kon": "1.89e+06"}
{"binder": "B2", "Kd": 0.682, "koff": 0.00109, "kon": "1.62e+06"}
{"binder": "B3", "Kd": 0.755, "koff": 0.0012, "kon": "1.61e+06"}
{"binder": "B4", "Kd": 0.738, "koff": 0.00169, "kon": "2.33e+06"}
{"binder": "B5", "Kd": 0.612, "koff": 0.00136, "kon": "2.49e+06"}
{"binder": "B6", "Kd": 0.897, "koff": 0.00104, "kon": "1.22e+06"}
{"binder": "B7", "Kd": 0.727, "koff": 0.00137, "kon": "1.95e+06"}
{"binder": "B8", "Kd": 0.549, "koff": 0.00112, "kon": "2.07e+06"}
{"binder": "B9", "Kd": 0.601, "koff": 0.00102, "kon": "1.72e+06"}
{"target": "T1, Human Notch4-NRR domain Fc fusion …", "test": "SPR (Biacore) as for Table 30; Notch4-NRR-Fc captured, antibody injected; averaged, N=2", "protocol": "as §1", "units": {"Kd": "nM", "koff": "s⁻¹", "kon": "M⁻¹ s⁻¹"}}
{"binder": "B10", "Kd": 4.87, "koff": 0.0196, "kon": "3.71e+06"}
